Experimental data from publication PMC13674618, “Electropolymerized Aptasensor for Femtogram‐Level Cytokine Detection”.

Assays:
[1] = molecular target: Tumour necrosis factor-alpha (TNF-alpha) (Homo sapiens, UniProt P01375 77-233); assay: OECT gate-voltage shift; negligible, non-monotonic shifts over the tested range; Kelvin probe in agreement; PBS (immobilization and rinse PBS pH 7.4); FO-SPR 10 min per concentration step; aptamer folded 95 C 5 min, ice 15 min, RT 5 min; assay temperature not stated; conditions: protein: recombinant; chain copies: 3; label: none
[2] = molecular target: Interleukin-6 (IL-6) (UniProt P05231 30-212); assay: FO-SPR; aptamer immobilized on pALT5c film; 100 fg/mL to 1 ug/mL IL-6 in PBS; no response without aptamer; PBS (immobilization and rinse PBS pH 7.4); FO-SPR 10 min per concentration step; aptamer folded 95 C 5 min, ice 15 min, RT 5 min; assay temperature not stated; conditions: label: none
Interleukin-6 (IL-6), sequence (P05231 30-212): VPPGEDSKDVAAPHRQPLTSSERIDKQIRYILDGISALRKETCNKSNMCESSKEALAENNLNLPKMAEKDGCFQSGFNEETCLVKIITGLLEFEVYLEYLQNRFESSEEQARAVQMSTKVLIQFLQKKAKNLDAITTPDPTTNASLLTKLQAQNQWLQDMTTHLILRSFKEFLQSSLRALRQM

Tumour necrosis factor-alpha (TNF-alpha), sequence (P01375 77-233): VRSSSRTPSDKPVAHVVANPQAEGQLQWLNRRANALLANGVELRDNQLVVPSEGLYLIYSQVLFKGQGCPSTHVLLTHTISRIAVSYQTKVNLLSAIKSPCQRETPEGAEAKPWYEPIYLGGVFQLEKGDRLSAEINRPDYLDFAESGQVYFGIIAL

CTTCCAACGCTCGTATTGTCAGTCTTTAGT (ssDNA, 5'-AminoC6) [IL-6 specific aptamer (Apt)]
binding result [1]: no binding | binding result [2]: binds
